From article PMC2528183 come the findings set out here.

For data set [1], the target named is Thermus thermophilus RecF (ttRecF) (Thermus thermophilus). The experiment in a line: SAXS.
Data set [2] addresses Thermus thermophilus RecR (ttRecR), wild type (Thermus thermophilus). The experiment in a line: SAXS.
For data set [3] the target is unchanged. As to the kind of experiment: SEC.
The target is the same in data set [4]. The experiment in a line: SAXS. This is another data set of the same source.
Data set [5] has as its target T1, ttRecF (Thermus thermophilus, UniProt Q5SLM9 1-343).
T1 sequence: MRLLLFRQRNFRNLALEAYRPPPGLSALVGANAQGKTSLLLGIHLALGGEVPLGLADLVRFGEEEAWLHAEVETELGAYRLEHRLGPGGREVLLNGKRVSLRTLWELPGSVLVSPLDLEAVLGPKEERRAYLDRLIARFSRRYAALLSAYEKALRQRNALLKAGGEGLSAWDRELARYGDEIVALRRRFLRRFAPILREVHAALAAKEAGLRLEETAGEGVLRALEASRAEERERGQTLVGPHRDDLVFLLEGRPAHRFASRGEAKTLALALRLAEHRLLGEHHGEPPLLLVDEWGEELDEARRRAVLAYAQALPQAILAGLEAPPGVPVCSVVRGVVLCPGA
As to the kind of experiment: EMSA.

Data set [6] concerns the target T2, ttRecF;ttRecR (Thermus thermophilus;Thermus …, UniProt Q5SLM9;Q5SHY0 1-343;1-194, |).
T2 sequence 1: T1 sequence
T2 sequence 2: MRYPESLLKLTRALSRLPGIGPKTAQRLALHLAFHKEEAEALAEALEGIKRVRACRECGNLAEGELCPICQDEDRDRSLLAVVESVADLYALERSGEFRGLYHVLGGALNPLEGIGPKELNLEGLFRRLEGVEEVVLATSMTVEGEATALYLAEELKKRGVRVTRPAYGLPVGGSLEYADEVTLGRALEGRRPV
As to the kind of experiment: EMSA.

Data set [7] has as its target T3, ttRecR (Thermus thermophilus, UniProt Q5SHY0 1-194).
T3 sequence: T2 sequence 2
As to the kind of experiment: EMSA.

On to “Thermus thermophilus RecR (ttRecR), wild type (natural protein)”, for which the N, ttRecF chains in the complex in data set [1] turned out to be 2. In data set [1], this molecule registered a N, ttRecR chains in the complex of 4. Further, the stoichiometry N in data set [2] worked out at 2; in data set [3], 2; in data set [4], 4.

B1: 70 bp dsDNA (dsDNA)
DNA 1: GCGATCCTTATTAAAACGGCAACTCCTCCTCCGGCGGAAAGTCTTCCAAGCCTTCGTCAATGTCCACCCC
DNA 2: GGGGTGGACATTGACGAAGGCTTGGAAGACTTTCCGCCGGAGGAGGAGTTGCCGTTTTAATAAGGATCGC
Consider B1, for which the binding result in data set [5] is given as “binds”; in data set [6], “binds”; in data set [7] it was “no binding”.
